Results as given in article PMC6829469, “A Genome-Centric Approach Reveals a Novel Glycosyltransferase from the GA A07 Strain of Bacillus thuringiensis Responsible for Catalyzing 15-O-Glycosylation of Ganoderic Acid A” (International Journal of Molecular Sciences, 2019).

B1: BsUGT398 (Bacillus spizizenii str. W23) (protein)
chain: MKTVLILNFPAEGHVNPTLGITKAFADRGYDVHYISTEKYKERLEAVGATVHLHQDLLRTTPINIASPNGILDFLKIHIKTSLDILHIVKELSKSIQFDFVYYDKFGAGELVRDYLNIPGISSSASFLFGEEHLKILPLHPDSEVPLQLDKQCEDLLLEMKQNYGVSPENMVQFMNNKGELNVVYTSRYFQPESHRFGDEFLFIGPSFPKRAEKTDFPTDKLKDEKVIYISMGTVLDETEEFFNLCIDAFSDVKGKVVIAAGEKADLTKLKQAPENFIIASYVPQLEVLEQSDVFITHGGMNSVNEGIHFNVPLVVMPHDKDQPMVAQRLTELQAGYTVSKDHVTAQSLKHAVEEVLNNDRYKEGIQKINRSFQDCMNMEEVMERIDQFIEQRK
notes: recombinant purified, obtained from the authors' previous study; GT1 family

Assays:
[1] = system: [H][C@@]12C[C@H](O)C3=C(C(=O)C[C@]4(C)[C@@]([H])([C@H](C)CC(=O)C[C@@H](C)C(=O)O)C[C@H](O)[C@@]34C)[C@@]1(C)CCC(=O)C2(C)C; assay: purified protein; conditions: 10 mM UDP-glucose, 10 mM MgCl2, 50 mM Tris pH 8.0, 40 °C
Source text: UPLC of GAA-15-O-beta-glucoside formation, Michaelis-Menten nonlinear fit on BsUGT489

[2] = substrate: [H][C@@]12C[C@H](O)C3=C(C(=O)C[C@]4(C)[C@@]([H])([C@H](C)CC(=O)C[C@@H](C)C(=O)O)C[C@H](O)[C@@]34C)[C@@]1(C)CCC(=O)C2(C)C; assay: UPLC of GAA-15-O-beta-glucoside formation, Michaelis-Menten nonlinear fit; type: biochemical, Bacillus spizizenii; conditions: 10 mM UDP-glucose, 10 mM MgCl2, 50 mM Tris pH 8.0, 40 °C
Source text: UPLC of GAA-15-O-beta-glucoside formation, Michaelis-Menten nonlinear fit on BsUGT398

| Molecule | Km [1] | kcat [1] | kcat/Km [1] | Km [2] | kcat [2] | kcat/Km [2] |
| --- | --- | --- | --- | --- | --- | --- |
| BsUGT489 (Bacillus spizizenii) | 793.96 ± 124.09 µM | 0.934 ± 0.0626 s⁻¹ | 1180 ± 200 M⁻¹ s⁻¹ |  |  |  |
| B1 |  |  |  | 90.71 ± 14.86 µM | 0.14 ± 0.0051 s⁻¹ | 1540 ± 259 M⁻¹ s⁻¹ |
